Measured values taken from paper PMC9482650, “Quantitative fragmentomics allow affinity mapping of interactomes” (Nature Communications, 2022).

Tests used:
Assay in all cases: holdup assay
Design in all cases: key: below the threshold = too weak to quantify, mostly under pKd 3.1 to 4
DFNB31_2, Q9P202 = target: T1, DFNB31_2, Q9P202
T1 sequence (Q9P202 274-371, limits assumed, looked up): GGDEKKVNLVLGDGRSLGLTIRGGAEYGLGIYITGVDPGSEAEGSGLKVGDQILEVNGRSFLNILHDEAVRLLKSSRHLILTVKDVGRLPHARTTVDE

NHERF4_1, Q86UT5-2 = target: NHERF4_1, Q86UT5-2
Chain of NHERF4_1, Q86UT5-2 (Q86UT5 other isoform, or with tags, fused parts or gaps): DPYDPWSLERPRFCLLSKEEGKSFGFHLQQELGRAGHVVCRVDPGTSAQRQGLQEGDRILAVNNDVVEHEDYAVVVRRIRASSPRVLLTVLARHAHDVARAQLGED

DVL3, Q92997 = target: T2, DVL3, Q92997
T2 sequence (Q92997 244-331, limits assumed, looked up): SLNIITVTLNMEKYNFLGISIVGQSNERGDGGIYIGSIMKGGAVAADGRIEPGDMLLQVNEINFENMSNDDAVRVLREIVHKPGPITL

GRIP2_3, Q9C0E4 = target: GRIP2_3, Q9C0E4
Chain of GRIP2_3, Q9C0E4 (Q9C0E4 238-339): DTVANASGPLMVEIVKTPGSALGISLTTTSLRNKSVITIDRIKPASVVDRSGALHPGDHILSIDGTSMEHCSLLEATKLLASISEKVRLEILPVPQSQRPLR

AHNAK1, Q09666 = target: AHNAK1, Q09666
Chain of AHNAK1, Q09666 (Q09666 4-100): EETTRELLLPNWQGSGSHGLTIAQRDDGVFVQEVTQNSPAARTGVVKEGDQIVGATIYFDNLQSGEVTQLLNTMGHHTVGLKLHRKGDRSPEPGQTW

APBA1_2, Q02410 = target: T3, APBA1_2, Q02410
T3 sequence (Q02410 742-832, limits assumed, looked up): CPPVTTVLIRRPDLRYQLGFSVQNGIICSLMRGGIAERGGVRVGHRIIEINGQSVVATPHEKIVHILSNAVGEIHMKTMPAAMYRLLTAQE

APBA1_1, Q02410 = target: T4, APBA1_1, Q02410
T4 sequence (Q02410 651-752, limits assumed, looked up): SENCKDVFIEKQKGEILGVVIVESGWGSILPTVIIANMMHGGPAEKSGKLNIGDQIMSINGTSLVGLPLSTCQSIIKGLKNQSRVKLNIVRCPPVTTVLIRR

PDZRN4_1, Q6ZMN7 = target: PDZRN4_1, Q6ZMN7
Chain of PDZRN4_1, Q6ZMN7 (Q6ZMN7 213-318): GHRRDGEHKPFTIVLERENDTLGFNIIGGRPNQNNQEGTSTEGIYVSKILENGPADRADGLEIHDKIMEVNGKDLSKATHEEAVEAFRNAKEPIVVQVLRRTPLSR

SCRIB_3, Q14160 = target: SCRIB_3, Q14160
Chain of SCRIB_3, Q14160 (Q14160 999-1103): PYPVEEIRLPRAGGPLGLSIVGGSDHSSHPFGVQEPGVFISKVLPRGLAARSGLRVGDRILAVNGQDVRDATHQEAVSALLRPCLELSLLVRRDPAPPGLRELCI

TJP1_3, Q07157 = target: TJP1_3, Q07157
Chain of TJP1_3, Q07157 (Q07157 416-512): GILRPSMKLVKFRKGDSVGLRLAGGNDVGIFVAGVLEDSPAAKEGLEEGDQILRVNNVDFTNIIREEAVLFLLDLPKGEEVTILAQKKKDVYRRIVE

DLG3_3, Q92796 = target: T5, DLG3_3, Q92796
T5 sequence (Q92796 374-475, limits assumed, looked up): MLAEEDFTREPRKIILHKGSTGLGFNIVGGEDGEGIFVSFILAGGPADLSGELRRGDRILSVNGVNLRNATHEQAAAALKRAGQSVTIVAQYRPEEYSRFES

FRMPD3, Q5JV73 = target: FRMPD3, Q5JV73
Chain of FRMPD3, Q5JV73 (Q5JV73 12-100): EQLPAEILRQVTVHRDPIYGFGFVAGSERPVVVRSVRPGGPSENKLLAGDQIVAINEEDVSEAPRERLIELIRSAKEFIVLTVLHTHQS

Inadl_5, Q8NI35 = target: Inadl_5, Q8NI35
Chain of Inadl_5, Q8NI35 (Q8NI35 673-780): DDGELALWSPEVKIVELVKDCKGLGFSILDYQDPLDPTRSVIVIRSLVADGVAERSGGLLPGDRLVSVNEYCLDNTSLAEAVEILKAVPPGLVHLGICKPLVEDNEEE

GRIP1_5, Q9Y3R0 = target: T6, GRIP1_5, Q9Y3R0
T6 sequence (Q9Y3R0 568-668, limits assumed, looked up): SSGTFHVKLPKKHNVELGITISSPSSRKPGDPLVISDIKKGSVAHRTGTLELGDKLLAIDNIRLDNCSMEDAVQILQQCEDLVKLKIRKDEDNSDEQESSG

Inadl_10, Q8NI35 = target: Inadl_10, Q8NI35
Chain of Inadl_10, Q8NI35 (Q8NI35 1673-1763): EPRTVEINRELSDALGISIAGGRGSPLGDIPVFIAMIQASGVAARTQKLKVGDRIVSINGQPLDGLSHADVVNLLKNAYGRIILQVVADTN

DLG1_3, Q12959 = target: DLG1_3, Q12959
Chain of DLG1_3, Q12959 (Q12959 457-571): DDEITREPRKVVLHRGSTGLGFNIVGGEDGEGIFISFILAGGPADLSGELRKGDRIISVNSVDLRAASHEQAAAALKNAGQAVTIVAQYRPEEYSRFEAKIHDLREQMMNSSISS

HTRA3, P83110 = target: T7, HTRA3, P83110
T7 sequence (P83110 354-453, limits assumed, looked up): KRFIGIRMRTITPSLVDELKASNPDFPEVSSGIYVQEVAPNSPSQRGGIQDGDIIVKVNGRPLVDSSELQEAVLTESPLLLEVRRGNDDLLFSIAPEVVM

TJP2_1, Q9UDY2 = target: TJP2_1, Q9UDY2
Chain of TJP2_1, Q9UDY2 (Q9UDY2 24-128): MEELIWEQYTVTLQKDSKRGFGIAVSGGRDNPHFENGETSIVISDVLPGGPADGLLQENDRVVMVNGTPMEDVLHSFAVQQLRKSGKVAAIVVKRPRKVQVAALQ

PDLIM1, O00151 = target: PDLIM1, O00151
Chain of PDLIM1, O00151 (O00151 1-87): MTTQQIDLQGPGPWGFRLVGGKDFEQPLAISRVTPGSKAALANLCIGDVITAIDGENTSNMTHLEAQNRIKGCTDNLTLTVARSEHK

Inadl_9, Q8NI35 = target: Inadl_9, Q8NI35
Chain of Inadl_9, Q8NI35 (Q8NI35 1530-1615): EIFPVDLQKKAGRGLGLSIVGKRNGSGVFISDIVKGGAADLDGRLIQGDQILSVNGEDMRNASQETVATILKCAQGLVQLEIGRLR

Inadl_4, Q8NI35 = target: Inadl_4, Q8NI35
Chain of Inadl_4, Q8NI35 (Q8NI35 547-651): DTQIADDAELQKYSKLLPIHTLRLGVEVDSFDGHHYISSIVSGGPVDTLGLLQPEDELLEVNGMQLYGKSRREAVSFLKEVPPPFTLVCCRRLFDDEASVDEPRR

GOPC, Q9HD26 = settings: plain residues with an end cap or a label only (N-terminal biotin on a linker: ado-ado)
FRMPD1, Q5SYB0 = target: T8, FRMPD1, Q5SYB0
T8 sequence (Q5SYB0 52-145, limits assumed, looked up): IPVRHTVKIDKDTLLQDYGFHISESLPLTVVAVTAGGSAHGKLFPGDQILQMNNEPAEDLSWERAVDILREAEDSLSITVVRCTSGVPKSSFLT

Inadl_8, Q8NI35 = target: Inadl_8, Q8NI35
Chain of Inadl_8, Q8NI35 (Q8NI35 1425-1530): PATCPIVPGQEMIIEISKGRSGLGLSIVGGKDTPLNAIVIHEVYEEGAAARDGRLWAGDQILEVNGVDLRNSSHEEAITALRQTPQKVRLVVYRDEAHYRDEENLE

NOS1, P29475 = target: NOS1, P29475
Chain of NOS1, P29475 (P29475 9-101): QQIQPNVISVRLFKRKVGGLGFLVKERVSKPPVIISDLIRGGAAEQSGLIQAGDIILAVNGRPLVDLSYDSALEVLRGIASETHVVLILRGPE

PTPN3, P26045 = target: PTPN3, P26045
Chain of PTPN3, P26045 (P26045 505-587): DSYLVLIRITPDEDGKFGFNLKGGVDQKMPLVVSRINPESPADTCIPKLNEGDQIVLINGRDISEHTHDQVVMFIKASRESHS

SCRIB_1, Q14160 = target: SCRIB_1, Q14160
Chain of SCRIB_1, Q14160 (Q14160 718-814): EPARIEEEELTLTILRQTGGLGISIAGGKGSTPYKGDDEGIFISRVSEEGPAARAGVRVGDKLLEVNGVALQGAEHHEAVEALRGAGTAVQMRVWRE

LNX2_2, Q8N448 = target: T9, LNX2_2, Q8N448
T9 sequence (Q8N448 334-432, limits assumed, looked up): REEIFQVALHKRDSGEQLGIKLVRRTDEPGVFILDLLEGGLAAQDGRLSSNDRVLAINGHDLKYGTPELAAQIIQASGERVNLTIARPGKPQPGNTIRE

DLG1_2, Q12959 = target: DLG1_2, Q12959
Chain of DLG1_2, Q12959 (Q12959 314-412): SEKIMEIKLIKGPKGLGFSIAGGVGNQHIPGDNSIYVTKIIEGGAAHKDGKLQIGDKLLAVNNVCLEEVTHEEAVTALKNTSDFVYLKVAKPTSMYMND

[1] = plain residues with an end cap or a label only (N-terminal biotin on a linker: ado-ado)
[2] = modified: phospho on T at position -2 from the C-terminal residue

For KRPEMTSSSV [MUC3A, MUC3B, Q02505;Q9H195], the pKd (DFNB31_2, Q9P202; [1]) was “below the threshold”, the pKd (NHERF4_1, Q86UT5-2; [1]) was 3.58 and the pKd (DVL3, Q92997; [1]) was “below the threshold”. The pKd (GRIP2_3, Q9C0E4; [1]) was “below the threshold”, the pKd (AHNAK1, Q09666; [1]) was “below the threshold” and the pKd (APBA1_2, Q02410; [1]) was 1.83. The pKd (APBA1_1, Q02410; [1]) was “below the threshold”, the pKd (PDZRN4_1, Q6ZMN7; [1]) was “below the threshold” and the pKd (SCRIB_3, Q14160; [1]) was 1.79. For the same binder, the pKd (TJP1_3, Q07157; [1]) was “below the threshold”, the pKd (DLG3_3, Q92796; [1]) was 1.84 and the pKd (FRMPD3, Q5JV73; [1]) was “below the threshold”. The pKd (Inadl_5, Q8NI35; [1]) was “below the threshold”, the pKd (GRIP1_5, Q9Y3R0; [1]) was “below the threshold” and the pKd (Inadl_10, Q8NI35; [1]) was “below the threshold”. For the same binder, the pKd (DLG1_3, Q12959; [1]) was “below the threshold”, the pKd (HTRA3, P83110; [1]) was “below the threshold” and the pKd (TJP2_1, Q9UDY2; [1]) was “below the threshold”. The pKd (PDLIM1, O00151; [1]) was “below the threshold”, the pKd (Inadl_9, Q8NI35; [1]) was 3.6 and the pKd (Inadl_4, Q8NI35; [1]) was “below the threshold”.

In the case of IDESKKEWLI [CNTNAP2, Q9UHC6], the pKd (DFNB31_2, Q9P202; [1]) is reported as “below the threshold”, the pKd (GOPC, Q9HD26) is reported as “below the threshold” and the pKd (NHERF4_1, Q86UT5-2; [1]) is reported as “below the threshold”. For the same binder, the pKd (FRMPD1, Q5SYB0; [1]) was “below the threshold”, the pKd (DVL3, Q92997; [1]) was 3.85 and the pKd (GRIP2_3, Q9C0E4; [1]) was “below the threshold”. For the same binder, the pKd (AHNAK1, Q09666; [1]) was “below the threshold”, the pKd (APBA1_2, Q02410; [1]) was “below the threshold” and the pKd (APBA1_1, Q02410; [1]) was “below the threshold”. For the same binder, the pKd (PDZRN4_1, Q6ZMN7; [1]) was “below the threshold”, the pKd (Inadl_8, Q8NI35; [1]) was “below the threshold” and the pKd (SCRIB_3, Q14160; [1]) was 3.71. For the same binder, the pKd (TJP1_3, Q07157; [1]) was “below the threshold”, the pKd (DLG3_3, Q92796; [1]) was “below the threshold” and the pKd (NOS1, P29475; [1]) was 4.21. For the same binder, the pKd (FRMPD3, Q5JV73; [1]) was “below the threshold”, the pKd (Inadl_5, Q8NI35; [1]) was “below the threshold” and the pKd (GRIP1_5, Q9Y3R0; [1]) was “below the threshold”. For the same binder, the pKd (Inadl_10, Q8NI35; [1]) was “below the threshold”, the pKd (DLG1_3, Q12959; [1]) was “below the threshold” and the pKd (HTRA3, P83110; [1]) was 4.15. For the same binder, the pKd (TJP2_1, Q9UDY2; [1]) was “below the threshold”, the pKd (PDLIM1, O00151; [1]) was “below the threshold” and the pKd (PTPN3, P26045; [1]) was 4.07. The pKd (Inadl_9, Q8NI35; [1]) was “below the threshold”, the pKd (SCRIB_1, Q14160; [1]) was “below the threshold” and the pKd (LNX2_2, Q8N448; [1]) was 4.77. For the same binder, the pKd (Inadl_4, Q8NI35; [1]) was “below the threshold” and the pKd (DLG1_2, Q12959; [1]) was “below the threshold”.

With KSRVAFFEEL [NF2, P35240;P35240-1] the pKd (DFNB31_2, Q9P202; [1]) was “below the threshold”, the pKd (NHERF4_1, Q86UT5-2; [1]) was 4.31 and the pKd (FRMPD1, Q5SYB0; [1]) was “below the threshold”. The pKd (GRIP2_3, Q9C0E4; [1]) was “below the threshold”, the pKd (AHNAK1, Q09666; [1]) was “below the threshold” and the pKd (APBA1_1, Q02410; [1]) was “below the threshold”. For the same binder, the pKd (PDZRN4_1, Q6ZMN7; [1]) was “below the threshold”, the pKd (Inadl_8, Q8NI35; [1]) was “below the threshold” and the pKd (TJP1_3, Q07157; [1]) was “below the threshold”. For the same binder, the pKd (DLG3_3, Q92796; [1]) was “below the threshold”, the pKd (Inadl_5, Q8NI35; [1]) was “below the threshold” and the pKd (Inadl_10, Q8NI35; [1]) was “below the threshold”. For the same binder, the pKd (HTRA3, P83110; [1]) was “below the threshold”, the pKd (PTPN3, P26045; [1]) was 4.22 and the pKd (Inadl_9, Q8NI35; [1]) was “below the threshold”. The pKd (LNX2_2, Q8N448; [1]) was “below the threshold” and the pKd (Inadl_4, Q8NI35; [1]) was “below the threshold”.

For SSRTRRETQL [HPV16-E6_-2P, P03126], the pKd (DFNB31_2, Q9P202; [2]) was “below the threshold”, the pKd (NHERF4_1, Q86UT5-2; [2]) was 4.37 and the pKd (FRMPD1, Q5SYB0; [2]) was “below the threshold”. The pKd (DVL3, Q92997; [2]) was “below the threshold”, the pKd (GRIP2_3, Q9C0E4; [2]) was “below the threshold” and the pKd (AHNAK1, Q09666; [2]) was “below the threshold”. The pKd (APBA1_2, Q02410; [2]) was “below the threshold”, the pKd (APBA1_1, Q02410; [2]) was “below the threshold” and the pKd (PDZRN4_1, Q6ZMN7; [2]) was “below the threshold”. The pKd (Inadl_8, Q8NI35; [2]) was “below the threshold”, the pKd (SCRIB_3, Q14160; [2]) was “below the threshold” and the pKd (TJP1_3, Q07157; [2]) was “below the threshold”. For the same binder, the pKd (DLG3_3, Q92796; [2]) was “below the threshold”, the pKd (NOS1, P29475; [2]) was 3.63 and the pKd (FRMPD3, Q5JV73; [2]) was “below the threshold”. For the same binder, the pKd (Inadl_5, Q8NI35; [2]) was “below the threshold”, the pKd (GRIP1_5, Q9Y3R0; [2]) was “below the threshold” and the pKd (Inadl_10, Q8NI35; [2]) was “below the threshold”. The pKd (DLG1_3, Q12959; [2]) was “below the threshold”, the pKd (HTRA3, P83110; [2]) was “below the threshold” and the pKd (TJP2_1, Q9UDY2; [2]) was “below the threshold”. For the same binder, the pKd (PDLIM1, O00151; [2]) was “below the threshold”, the pKd (PTPN3, P26045; [2]) was 3.92 and the pKd (Inadl_9, Q8NI35; [2]) was “below the threshold”. For the same binder, the pKd (SCRIB_1, Q14160; [2]) was “below the threshold”, the pKd (LNX2_2, Q8N448; [2]) was “below the threshold” and the pKd (Inadl_4, Q8NI35; [2]) was “below the threshold”. The pKd (DLG1_2, Q12959; [2]) was “below the threshold”.

For SRSVVESDEL [MYPN, Q86TC9], the pKd (DFNB31_2, Q9P202; [1]) was “below the threshold”, the pKd (GOPC, Q9HD26) was “below the threshold” and the pKd (NHERF4_1, Q86UT5-2; [1]) was 4.29. The pKd (FRMPD1, Q5SYB0; [1]) was “below the threshold”, the pKd (DVL3, Q92997; [1]) was “below the threshold” and the pKd (GRIP2_3, Q9C0E4; [1]) was “below the threshold”. For the same binder, the pKd (AHNAK1, Q09666; [1]) was “below the threshold”, the pKd (APBA1_2, Q02410; [1]) was “below the threshold” and the pKd (APBA1_1, Q02410; [1]) was “below the threshold”. For the same binder, the pKd (PDZRN4_1, Q6ZMN7; [1]) was “below the threshold”, the pKd (Inadl_8, Q8NI35; [1]) was “below the threshold” and the pKd (SCRIB_3, Q14160; [1]) was 3.51. The pKd (TJP1_3, Q07157; [1]) was “below the threshold”, the pKd (DLG3_3, Q92796; [1]) was “below the threshold” and the pKd (NOS1, P29475; [1]) was “below the threshold”. The pKd (FRMPD3, Q5JV73; [1]) was “below the threshold”, the pKd (Inadl_5, Q8NI35; [1]) was “below the threshold” and the pKd (GRIP1_5, Q9Y3R0; [1]) was “below the threshold”. For the same binder, the pKd (Inadl_10, Q8NI35; [1]) was “below the threshold”, the pKd (DLG1_3, Q12959; [1]) was “below the threshold” and the pKd (HTRA3, P83110; [1]) was “below the threshold”. The pKd (TJP2_1, Q9UDY2; [1]) was “below the threshold”, the pKd (PDLIM1, O00151; [1]) was 5.11 and the pKd (PTPN3, P26045; [1]) was 3.99. The pKd (Inadl_9, Q8NI35; [1]) was “below the threshold”, the pKd (SCRIB_1, Q14160; [1]) was 3.49 and the pKd (LNX2_2, Q8N448; [1]) was “below the threshold”. The pKd (Inadl_4, Q8NI35; [1]) was “below the threshold” and the pKd (DLG1_2, Q12959; [1]) was “below the threshold”.
